Measured values taken from US20240092889A1 (Chugai, published 2024).
Where a chain is given by its changes, count along the chain named. In names and notes the source's numbering stands.

T1: recombinant human C1r2s2 tetramer (human, UniProt P09871 16-688; P00736 18-705)
T1 construct: C1s and C1r co-expressed in HEK293/FreeStyle 293-F and purified from conditioned medium
T1 chain 1: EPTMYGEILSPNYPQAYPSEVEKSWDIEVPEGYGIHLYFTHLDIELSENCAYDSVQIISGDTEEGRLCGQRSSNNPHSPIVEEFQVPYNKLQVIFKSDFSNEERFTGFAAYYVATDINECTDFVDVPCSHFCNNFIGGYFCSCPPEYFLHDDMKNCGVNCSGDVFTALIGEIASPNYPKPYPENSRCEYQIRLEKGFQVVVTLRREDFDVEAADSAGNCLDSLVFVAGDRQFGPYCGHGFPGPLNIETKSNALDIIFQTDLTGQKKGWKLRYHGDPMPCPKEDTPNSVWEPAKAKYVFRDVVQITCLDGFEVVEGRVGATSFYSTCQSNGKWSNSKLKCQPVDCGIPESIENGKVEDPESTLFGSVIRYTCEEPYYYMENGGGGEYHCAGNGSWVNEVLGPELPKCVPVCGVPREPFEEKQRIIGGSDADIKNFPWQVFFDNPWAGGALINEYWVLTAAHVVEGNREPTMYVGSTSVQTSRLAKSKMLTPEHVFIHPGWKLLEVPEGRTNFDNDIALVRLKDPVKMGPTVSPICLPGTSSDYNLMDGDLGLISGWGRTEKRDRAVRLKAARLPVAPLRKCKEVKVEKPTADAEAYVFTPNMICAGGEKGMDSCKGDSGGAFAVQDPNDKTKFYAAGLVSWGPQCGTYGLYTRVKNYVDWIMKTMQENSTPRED
T1 chain 2: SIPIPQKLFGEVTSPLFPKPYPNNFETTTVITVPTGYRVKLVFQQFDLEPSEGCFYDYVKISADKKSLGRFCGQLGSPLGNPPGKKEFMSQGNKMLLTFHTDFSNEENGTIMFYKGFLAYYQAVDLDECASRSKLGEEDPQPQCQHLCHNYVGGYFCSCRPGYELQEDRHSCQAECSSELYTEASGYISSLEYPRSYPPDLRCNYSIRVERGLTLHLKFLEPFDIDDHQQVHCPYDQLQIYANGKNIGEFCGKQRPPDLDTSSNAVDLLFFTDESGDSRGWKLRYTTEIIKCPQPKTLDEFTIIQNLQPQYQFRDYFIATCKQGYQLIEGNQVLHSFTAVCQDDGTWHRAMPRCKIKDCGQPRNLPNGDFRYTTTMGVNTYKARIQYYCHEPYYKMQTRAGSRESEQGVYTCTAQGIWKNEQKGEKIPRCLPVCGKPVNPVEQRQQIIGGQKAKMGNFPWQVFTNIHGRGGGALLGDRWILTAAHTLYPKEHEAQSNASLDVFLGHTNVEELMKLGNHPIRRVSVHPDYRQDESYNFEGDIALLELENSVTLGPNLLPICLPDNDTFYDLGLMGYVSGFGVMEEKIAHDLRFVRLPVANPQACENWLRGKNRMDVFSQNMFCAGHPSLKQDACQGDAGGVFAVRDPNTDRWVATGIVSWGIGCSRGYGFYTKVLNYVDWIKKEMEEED

B1: AL0451 (antibody, human IgG1, kappa, V domains shown)
VH: QVQLVESGGGVVQPGRSLRLSCAASGFTFSAYAMNWIRQPPGKGLEWIGLIYGSGSTFYASWAKGRVTISVDTSKNQFSLKLSSVTAADTAVYYCARGRSVNYNSDFHLWGQGTLVTVSS
VL: DIQMTQSPSSLSASVGDRVTITCQASQSLHDKKNLAWYQQKPGQPPKLLIYGASTLESGVPSRFSGSGSGTDFTLTISSLQPEDFATYYCQGEFSASSADCNTFGQGTKVEIKR
notes: COS0637temp with VL C94A (Kabat), already in the VL entry
B2: AL0464 (antibody, human IgG1, kappa, V domains shown)
VH: B1 VH
VL: B1 VL with A96R
notes: COS0637temp with VL C94R (Kabat), already in the VL entry
B3: AL0455 (antibody, human IgG1, kappa, V domains shown)
VH: B1 VH
VL: B1 VL with A96G
notes: COS0637temp with VL C94G (Kabat), already in the VL entry
B4: AL0458 (antibody, human IgG1, kappa, V domains shown)
VH: B1 VH
VL: B1 VL with A96K
notes: COS0637temp with VL C94K (Kabat), already in the VL entry
B5: AL0463 (antibody, human IgG1, kappa, V domains shown)
VH: B1 VH
VL: B1 VL with A96Q
notes: COS0637temp with VL C94Q (Kabat), already in the VL entry
B6: AL0460 (antibody, human IgG1, kappa, V domains shown)
VH: B1 VH
VL: B1 VL with A96M
notes: COS0637temp with VL C94M (Kabat), already in the VL entry
B7: AL0456 (antibody, human IgG1, kappa, V domains shown)
VH: B1 VH
VL: B1 VL with A96H
notes: COS0637temp with VL C94H (Kabat), already in the VL entry
B8: AL0454 (antibody, human IgG1, kappa, V domains shown)
VH: B1 VH
VL: B1 VL with A96F
notes: COS0637temp with VL C94F (Kabat), already in the VL entry
B9: AL0462 (antibody, human IgG1, kappa, V domains shown)
VH: B1 VH
VL: B1 VL with A96P
notes: COS0637temp with VL C94P (Kabat), already in the VL entry
B10: AL0452 (antibody, human IgG1, kappa, V domains shown)
VH: B1 VH
VL: B1 VL with A96D
notes: COS0637temp with VL C94D (Kabat), already in the VL entry
B11: AL0461 (antibody, human IgG1, kappa, V domains shown)
VH: B1 VH
VL: B1 VL with A96N
notes: COS0637temp with VL C94N (Kabat), already in the VL entry
B12: AL0465 (antibody, human IgG1, kappa, V domains shown)
VH: B1 VH
VL: B1 VL with A96S
notes: COS0637temp with VL C94S (Kabat), already in the VL entry
B13: AL0453 (antibody, human IgG1, kappa, V domains shown)
VH: B1 VH
VL: B1 VL with A96E
notes: COS0637temp with VL C94E (Kabat), already in the VL entry
B14: AL0457 (antibody, human IgG1, kappa, V domains shown)
VH: B1 VH
VL: B1 VL with A96I
notes: COS0637temp with VL C94I (Kabat), already in the VL entry
B15: AL0459 (antibody, human IgG1, kappa, V domains shown)
VH: B1 VH
VL: B1 VL with A96L
notes: COS0637temp with VL C94L (Kabat), already in the VL entry

Target: T1, recombinant human C1r2s2 tetramer
Test: SPR (BIACORE), antibody captured by ProL, human C1r2s2 injected at 100 nM, pH 7.4, 37 C
Method: Analysis of interaction between antibody variants and the human C1r2s2 prepared as mentioned above was carried out at pH7.4, at 37 degrees C. using BIACORE® T200 instrument (GE Healthcare) or BIACORE® 4000 (GE Healthcare). ProL (BioVision) was immobilized onto a CM4 sensorchip using amine coupling kit (GE Healthcare) according to the recommended settings by GE Healthcare. Antibodies and analytes were diluted into the respective running buffers, ACES pH7.4 (20 mM ACES (N-(2-Acetamido)-2-aminoethanesulfonic acid), 150 mM NaCl, 1.2 mM CaCl2, 1 mg/ml bovine serum albumin (BSA), 1 mg/ml CMD (CM-Dextran sodium salt), 0.05% Tween® 20 (polysorbate 20), 0.005 w/v % NaN3). Each antibody was captured onto the sensor surface by ProL. Antibody capture levels were aimed at 200 resonance units (RU). Then, recombinant human C1r2s2 was injected at concentrations of 25 and 100 nM followed by dissociation at pH7.4. The surface was regenerated using 10 mM Glycine-HCl, pH1.5.

Binding result, no binding (tested: 100 nM):
B1, B2, B3, B4, B5, B6, B7, B8, B9, B10, B11, B12, B13, B14, B15
